{"source": "paper PMC5058624", "biological_target": "recombinant LukG monomer (TCH1516) (Staphylococcus aureus strain TCH1516 (USA300 CA-MRSA))", "sequence (P21224 30-338 limits assumed)": "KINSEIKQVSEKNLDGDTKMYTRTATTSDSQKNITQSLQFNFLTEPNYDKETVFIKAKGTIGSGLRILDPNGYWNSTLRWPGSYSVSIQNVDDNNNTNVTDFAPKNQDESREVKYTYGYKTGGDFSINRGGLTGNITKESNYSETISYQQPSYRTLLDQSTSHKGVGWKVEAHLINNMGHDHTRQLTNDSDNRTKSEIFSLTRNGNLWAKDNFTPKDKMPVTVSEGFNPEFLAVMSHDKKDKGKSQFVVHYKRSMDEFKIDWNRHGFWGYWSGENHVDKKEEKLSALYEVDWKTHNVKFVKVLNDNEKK", "assay": "BLI"}
{"substance": "recombinant LukH monomer (TCH1516) (natural protein)", "values": [{"measurement": "stoichiometry N (molar ratio of the 2 monomers)", "value": 1}]}
